This is an account of results in publication PMC9902655.

The target of this experiment is human adiponectin (ADPN) from egg white of OVA ADPN knock-in chickens (human) (UniProt Q15848). Kind of experiment: non-reducing SDS-PAGE and Western blot; crude egg white of KI hens 0090 and 0141, diluted, in RIPA buffer and Laemmli sample buffer, 95°C 5 min, 10% gel, non-reducing; anti-adiponectin blot; under reducing conditions the multimer bands decreased and the monomer band increased. (A western blot detects proteins with antibodies after separation by electrophoresis.)

Where “and” joins values, the source holds several entries; their conditions need not be identical. Identical values can stand only once.

“human adiponectin (ADPN) from egg white of OVA ADPN knock-in chickens (from UniProt Q15848 19-244) (natural protein)”: the stoichiometry N (in general, a count of units in the complex or per binding partner) was 3 and 6.
